# Laboratory results as given in doi:10.64898/2025.12.30.697032.
# B1: Arabidopsis mitochondrial initiation factor 3 (natural protein)
# chain: MAIWRIINRSYLKYASNQLTRNYYTQVCLASSTHVVKQTTKLSSFDIPNSDICTRPSNIFQNLRFLATSAQTRKKEAEVDSDGPRLNEKITGDYVRLVSEEGHCVVSLREALRRAKELQCDLVEVQRDAKPPVCKIVKYSLELYKKAKVGKERAKAKRAEAIRPDIKEIRFTPKIEAKDLKFKSDQALKLMESGYRVKCLAVPDKDKHKELEPEKLLELLFRFTCFIGDALVESWPEADRKGAVVIVRHAKFGPPKKGGVKLMKDIDIKSARVKEESPKPDSSKAGVATVDDQEDIEKSEPRFSVEQAQPVKFQNAYAKREPSSEFSGGRDASRFEPQSPNQHVNPQRPRFSNQAPNQQPTGRFDPQSPNQPPSAPRPQFPNQQPTGRFDPQFPSQPPRPQFPNQAPNQQSTGRFNPQFPNQRPSPPQSRFPDQAPNQQPSGPSPNRHPDRQGPPPRFQNQAPNQQPTGRFEPQPPNPPRAPPRPQTRLPNETSNEQPTAPGRSSGPASGYGIFSTPKTK
# Biological target: cauliflower mitoribosome small subunit (cauliflower (B. oleracea))
# Assay: cryo-EM structure; in vitro reconstitution (first reaction): 2.7 ug/uL mtSSU, 500 nM rps3 mRNA (51 nt), 500 nM mtIF3, 2 min at 37 °C, then 10 min on ice; Initiation buffer (20 mM HEPES-KOH pH 7.6, 75 mM KCl, 40 mM MgCl2); gives mtPIC-1 and mtPIC-2
binder,measurement,value
B1,percent of mtSSU particles accommodating mtIF3,70%
